Our source for the Kd values is article PMC3463842.

This experiment concerns the target ubiquitin^TAMRA (C-terminal TAMRA-labelled ubiquitin) (UniProt P0CG48). In words: fluorescence polarisation.

pKd: −log10 of the molar value.

In turn, HOIP^LDD C930A (domain or fragment) gave a pKd of 3.13. HOIP^LDD (domain or fragment) showed a negative-log Kd (pKd) of 4.01.
